Source: article PMC2827695 (Journal of the American Society for Mass Spectrometry, 2009)

Target: T1, IFNAR1 (UniProt P17181 28-436)
T1 sequence (looked up): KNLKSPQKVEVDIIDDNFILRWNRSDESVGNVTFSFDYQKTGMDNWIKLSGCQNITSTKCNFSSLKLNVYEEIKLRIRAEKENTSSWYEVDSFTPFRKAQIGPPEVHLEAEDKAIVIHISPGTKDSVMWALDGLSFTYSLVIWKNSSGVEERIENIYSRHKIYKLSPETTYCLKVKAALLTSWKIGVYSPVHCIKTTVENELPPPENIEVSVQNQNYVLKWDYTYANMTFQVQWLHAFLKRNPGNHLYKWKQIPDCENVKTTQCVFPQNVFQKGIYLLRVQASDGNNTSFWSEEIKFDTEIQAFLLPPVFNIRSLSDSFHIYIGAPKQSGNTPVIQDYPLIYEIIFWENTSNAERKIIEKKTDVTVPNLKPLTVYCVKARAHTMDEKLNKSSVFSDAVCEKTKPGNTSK
Assay: native MS

B1: Interferon-β1a (ligand, UniProt P01574 22-187, looked up)
chain: MSYNLLGFLQRSSNFQCQKLLWQLNGRLEYCLKDRMNFDIPEEIKQLQQFQKEDAALTIYEMLQNIFAIFRQDSSSTGWNETIVENLLANVYHQINHLKTVLEEKLEKEDFTRGKLMSSLHLKRYYGRILHYLKAKEYSHCAWTIVRVEILRNFYFINRLTGYLRN
modifications: glycoprotein with a carbohydrate chain, several glycoforms (glycosylation site printed as Asn-90)
stoichiometry N: 1
